Test results from publication PMC6650244.

Columns and labels:
[1] = biological target: BRD4 (bromodomain-containing protein 4) (UniProt Q9ESU6); assay: co-immunoprecipitation (IP: BMAL1) with immunoblot, chemiluminescence band intensity; conditions: nuclear extracts, synchronized fibroblasts 24 hr after Dex, scale: relative band intensity
[2] = biological target: CDK9 (cyclin-dependent kinase 9) (UniProt Q99J95); assay: as above; conditions: nuclear extracts, synchronized fibroblasts 24 hr after Dex, scale: relative band intensity
[3] = highest amount of IP (two-fold dilution series, lane 3 of 3)
[4] = lowest amount of IP (two-fold dilution series, lane 1 of 3)
[5] = middle amount of IP (two-fold dilution series, lane 2 of 3)

response [1, 3]: 0.1 | response [1, 4]: 0.02 | response [1, 5]: 0.06 | response [2, 3]: 0.07 | response [2, 4]: 0.01 | response [2, 5]: 0.03
Substance: BMAL1 (brain and muscle ARNT-like protein 1) K538R
